In paper PMC10404244, “Control of motor landing and processivity by the CAP-Gly domain in the KIF13B tail” (Nature Communications, 2023):

Target: T1, tyrosinated microtubules polymerized from purified porcine brain tubulin (porcine, UniProt P02550 1-451); Q767L7 1-444, part of the tubulin labelled with biotin NHS ester and Dylight-405 (or Alexa647) NHS ester (chain and residues not told) | part of the tubulin labelled with biotin NHS ester and Dylight-405 (or …)
T1 construct: alpha-tubulin of porcine brain, mixture of isotypes and PTMs, approximately 50% tyrosinated; beta-tubulin of porcine brain, mixture of isotypes and PTMs; A polymer of alpha/beta-tubulin dimers, held on the coverslip through biotin-streptavidin; also called WT (tyrosinated) microtubules; tyrosinated MTs; source: purified from porcine brain (high-molarity PIPES procedure), polymerized with GTP, …
Assay: TIRF microscopy microtubule-binding assay; KIF5B constructs on tyrosinated and detyrosinated microtubules in the presence of ADP (Supplementary Fig. 5G); read-out not told

B1: chimeric KIF5B motor domain and stalk appended with the CAP-Gly domain from KIF13B (other)
chain: MADLAECNIKVMCRFRPLNESEVNRGDKYIAKFQGEDTVVIASKPYAFDRVFQSSTSQEQVYNDCAKKIVKDVLEGYNGTIFAYGQTSSGKTHTMEGKLHDPEGMGIIPRIVQDIFNYIYSMDENLEFHIKVSYFEIYLDKIRDLLDVSKTNLSVHEDKNRVPYVKGCTERFVCSPDEVMDTIDEGKSNRHVAVTNMNEHSSRSHSIFLINVKQENTQTEQKLSGKLYLVDLAGSEKVSKTGAEGAVLDEAKNINKSLSALGNVISALAEGSTYVPYRDSKMTRILQDSLGGNCRTTIVICCSPSSYNESETKSTLLFGQRAKTIKNTVCVNVELTAEQWKKKYEKEKEKNKILRNTIQWLENELNRWRNGETVPIDEQFDKEKANLEAFTVDKDITLTNDKPATAIGVIGNFTDAERRKCEEEIAKLYKQLDDKDEEINQQSQLVEKLKTQMLDQEELLASTRRDQDNMQAELNRLQAENDASKEEVKEVLQALEELAVNYDQKSQEVEDKTKEYELLSDELNQKSATLASIDAELQKLKEMTNHQKKRAAEMMASLLKDLAEIGIAVGNNDVKQPEGTGMIDEEFTVARLYISKMKSEVKTMVKRCKQLESTQTESNKKMEENEKELAACQLRISQHEAKIKSLTEYLQNVEQKKRQLEESVDALSEELVQLRAQEKVHEMEKEHLNKVQTANEVKQAVEQQIQSHRETHQKQISSLRDEVEAKAKLITDLQDQNQKMMLEQERLRVEHEKLKATDQEKSRKLHELTVMQDRREQARQDLKGLEETVAKELQTLHNLRKLFVQDLATRVKKSAEIDSDDTGGSAAQKQKISFLENNLEQLTKVHKQLVRDNADLRCELPKLEKRLRATAERVKALESALKEAKENASRDRKRYQQEVDRIKEAVRSKNMAQALASDSEEADEVPEWLREGEFVTVGAHKTGVVRYVGPADFQEGTWVGVELDLPSGKNDGSIGGKQYFRCNPGYGLLVRPSRVRRATGPVRRRSTGLRLGAPEARRSATLSGSATNLASLTAALAKADRSHKNPENRKSWAS
fold binding, tyrosinated over detyrosinated microtubules (ADP): ~16 fold
